Source: paper doi:10.1101/2021.09.12.459968 (bioRxiv, 2021)

B1: mouse NLRP3 LRRm6 (K970E_Q1001R_F1029A) (natural protein)
chain: MTSVRCKLAQYLEDLEDVDLKKFKMHLEDYPPEKGCIPVPRGQMEKADHLDLATLMIDFNGEEKAWAMAVWIFAAINRRDLWEKAKKDQPEWNDTCTSHSSMVCQEDSLEEEWMGLLGYLSRISICKKKKDYCKMYRRHVRSRFYSIKDRNARLGESVDLNSRYTQLQLVKEHPSKQEREHELLTIGRTKMRDSPMSSLKLELLFEPEDGHSEPVHTVVFQGAAGIGKTILARKIMLDWALGKLFKDKFDYLFFIHCREVSLRTPRSLADLIVSCWPDPNPPVCKILRKPSRILFLMDGFDELQGAFDEHIGEVCTDWQKAVRGDILLSSLIRKKLLPKASLLITTRPVALEKLQHLLDHPRHVEILGFSEAKRKEYFFKYFSNELQAREAFRLIQENEVLFTMCFIPLVCWIVCTGLKQQMETGKSLAQTSKTTTAVYVFFLSSLLQSRGGIEEHLFSDYLQGLCSLAADGIWNQKILFEECDLRKHGLQKTDVSAFLRMNVFQKEVDCERFYSFSHMTFQEFFAAMYYLLEEEAEGETVRKGPGGCSDLLNRDVKVLLENYGKFEKGYLIFVVRFLFGLVNQERTSYLEKKLSCKISQQVRLELLKWIEVKAKAKKLQWQPSQLELFYCLYEMQEEDFVQSAMDHFPKIEINLSTRMDHVVSSFCIKNCHRVKTLSLGFFHNSPKEEEEERRGGRPLDQVQCVFPDTHVACSSRLVNCCLTSSFCRGLFSSLSTNRSLTELDLSDNTLGDPGMRVLCEALQHPGCNIQRLWLGRCGLSHQCCFDISSVLSSSQKLVELDLSDNALGDFGIRLLCVGLKHLLCNLQKLWLVSCCLTSACCQDLALVLSSNHSLTRLYIGENALGDSGVQVLCEKMKDPQCNLQKLGLVNSGLTSICCSALTSVLKTNQNFTHLYLRSNALGDTGLRLLCEGLLHPDCKLQMLELDNCSLTSHSCWNLSTILTHNHSLRELNLGNNDLGDLCVVTLCEVLKQQGCLLQSLRLGEMYLNRETKRALEALQEEKPELTIVAEISW
B2: recombinant full-length mouse NEK7 (enzyme)
chain: not shown

Assays:
[1] = molecular target: the molecule itself; experiment: negative-staining electron microscopy
[2] = molecular target: full-length mouse NLRP3 (FLAG-mScarlet tag removed), double ring cage (mouse, UniProt Q8R4B8 1-1033); experiment: co-sedimentation

Binder | binding result [1] | binding result [2]
B1 | binds | –
B2 | – | binds
